The numbers were not newly measured in paper PMC8526499, which cites them from elsewhere.

The target in one series is CD47 (Mus musculus) (UniProt Q61735).
Series [1] deals with CD47 (Homo sapiens) (UniProt Q08722).
Series [2] has the same target. The source holds these as a separate data set.
For series [3] the target is unchanged. The source holds these as a separate data set.

Read-outs that look alike come from different tables or passages of the source.

Chain of UniProt Q08722 (Q08722 19-323): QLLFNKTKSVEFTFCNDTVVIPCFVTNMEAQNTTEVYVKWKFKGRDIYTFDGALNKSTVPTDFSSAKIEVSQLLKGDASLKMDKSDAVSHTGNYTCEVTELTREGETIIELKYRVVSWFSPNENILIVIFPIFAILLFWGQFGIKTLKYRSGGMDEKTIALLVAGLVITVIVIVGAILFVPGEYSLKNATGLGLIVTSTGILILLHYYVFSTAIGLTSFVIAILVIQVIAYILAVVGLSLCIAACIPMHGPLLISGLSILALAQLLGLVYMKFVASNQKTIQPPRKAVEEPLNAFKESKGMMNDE
Chain of UniProt Q61735 (Q61735 19-303): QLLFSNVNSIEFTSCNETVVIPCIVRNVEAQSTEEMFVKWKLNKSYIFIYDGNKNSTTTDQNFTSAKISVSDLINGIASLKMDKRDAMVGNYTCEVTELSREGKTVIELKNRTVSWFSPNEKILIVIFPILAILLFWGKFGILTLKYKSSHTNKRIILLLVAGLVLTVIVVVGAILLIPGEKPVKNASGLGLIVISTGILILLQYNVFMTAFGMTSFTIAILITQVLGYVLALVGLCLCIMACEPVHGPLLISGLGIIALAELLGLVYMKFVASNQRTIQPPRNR

As for SIRPα (C57BL/6) (from UniProt P97797), the Kd with CD47 (Mus musculus) and with CD47 (Homo sapiens) [1] was 5000 nM each time. SIRPα (NOD) (from UniProt P97797): the Kd with CD47 (Homo sapiens) [2] was 80 nM.

On to SIRPα (from UniProt P78324), for which the Kd with CD47 (Homo sapiens) [3] was 450 nM.

The Kd is the equilibrium constant for the complex coming apart.
